Data from patent publication US20100240066A1 (MCGILL UNIVERSITY, published 2010).

T1: N-cadherin/Fc chimeric protein (human, UniProt P19022 160-724)
T1 construct: range 160-724; Bought from R&D Systems; also called N-cad/Fc; human N-cadherin/Fc chimeric protein; not shown: Fc region of human IgG1
T1 sequence (looked up): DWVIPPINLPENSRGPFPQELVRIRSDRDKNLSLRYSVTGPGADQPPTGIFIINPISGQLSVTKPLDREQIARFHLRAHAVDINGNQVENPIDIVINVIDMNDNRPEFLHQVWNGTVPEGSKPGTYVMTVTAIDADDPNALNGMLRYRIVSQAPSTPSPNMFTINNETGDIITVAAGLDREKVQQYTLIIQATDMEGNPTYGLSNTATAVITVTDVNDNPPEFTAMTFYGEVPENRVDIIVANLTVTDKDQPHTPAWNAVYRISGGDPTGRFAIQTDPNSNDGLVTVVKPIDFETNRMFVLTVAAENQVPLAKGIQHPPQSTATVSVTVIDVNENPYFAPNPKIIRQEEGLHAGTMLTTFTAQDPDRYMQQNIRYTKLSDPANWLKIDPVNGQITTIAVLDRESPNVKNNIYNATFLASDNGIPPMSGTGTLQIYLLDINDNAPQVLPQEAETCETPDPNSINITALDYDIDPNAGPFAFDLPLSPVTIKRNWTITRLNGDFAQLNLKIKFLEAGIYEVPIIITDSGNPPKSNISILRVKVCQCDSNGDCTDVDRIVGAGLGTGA

T2: E-cadherin/Fc chimeric protein (human, UniProt P12830 155-707)
T2 construct: range 155-707; Bought from R&D Systems; also called E-cad/Fc; human E-cadherin/Fc chimeric protein; not shown: Fc region of human IgG1
T2 sequence (looked up): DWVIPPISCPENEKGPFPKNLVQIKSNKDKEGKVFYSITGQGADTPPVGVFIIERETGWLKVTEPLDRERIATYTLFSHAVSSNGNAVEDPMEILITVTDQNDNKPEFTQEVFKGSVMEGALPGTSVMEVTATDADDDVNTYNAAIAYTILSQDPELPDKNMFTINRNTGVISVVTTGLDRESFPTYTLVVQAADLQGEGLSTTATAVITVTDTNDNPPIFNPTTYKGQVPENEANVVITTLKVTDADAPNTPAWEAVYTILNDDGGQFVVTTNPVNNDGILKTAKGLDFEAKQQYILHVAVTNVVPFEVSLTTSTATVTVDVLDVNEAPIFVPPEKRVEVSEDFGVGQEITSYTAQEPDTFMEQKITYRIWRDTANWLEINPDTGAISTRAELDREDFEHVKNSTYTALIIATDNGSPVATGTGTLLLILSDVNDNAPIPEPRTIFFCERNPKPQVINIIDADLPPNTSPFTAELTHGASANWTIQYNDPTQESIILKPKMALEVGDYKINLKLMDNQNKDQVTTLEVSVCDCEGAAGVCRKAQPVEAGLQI

T3: VE-cadherin/Fc chimeric protein (UniProt P33151 48-593)
T3 construct: Bought from R&D Systems; also called vascular endothelial (VE)-cadherin/Fc chimeric protein; not shown: Fc part not described
T3 sequence (looked up): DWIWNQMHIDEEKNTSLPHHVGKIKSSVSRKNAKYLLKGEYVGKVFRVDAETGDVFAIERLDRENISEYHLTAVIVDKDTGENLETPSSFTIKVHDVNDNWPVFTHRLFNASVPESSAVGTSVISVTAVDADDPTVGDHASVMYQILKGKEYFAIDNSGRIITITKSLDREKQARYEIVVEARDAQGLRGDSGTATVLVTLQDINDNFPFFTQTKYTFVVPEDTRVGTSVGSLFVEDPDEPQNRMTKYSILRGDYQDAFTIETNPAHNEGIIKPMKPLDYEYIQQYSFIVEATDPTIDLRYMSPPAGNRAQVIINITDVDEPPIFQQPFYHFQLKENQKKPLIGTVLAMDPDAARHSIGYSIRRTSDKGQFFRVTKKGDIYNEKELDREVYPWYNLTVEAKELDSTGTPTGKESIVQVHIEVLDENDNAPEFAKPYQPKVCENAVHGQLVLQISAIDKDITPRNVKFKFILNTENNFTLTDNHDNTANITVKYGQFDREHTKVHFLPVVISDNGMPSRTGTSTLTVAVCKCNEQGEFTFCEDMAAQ


Tests used:
Experiment in all cases: phage ELISA
[1] = target: T1, N-cadherin/Fc chimeric protein
Method: (§1) The binding of each clone to the cadherin/Fc chimeric proteins was confirmed by ELISA. Wells of ProBind microtiter plates (Falcon) were coated with either N-cadherin/Fc or E-cadherin/Fc chimeric protein (100 ng/well) or human IgG1 (which contains the Fc fragment) (100 ng/well). After blocking the nonspecific sites with TBS containing 3% BSA and 1.2 mM CaCl₂ for 1 h at 37° C., phage clones (10⁹ pfu) diluted in TBST containing 3% BSA and 1.2 mM CaCl₂ (100 μl/well). Non-coated wells were also used to exclude any phage that bound to the plastic surface. After 1 h incubation at room temperature, wells were washed 3 times with TBST containing 3% BSA and 1.2 mM CaCl₂. M13 phage without any insert were used to control the non-specific binding of the phage itself to the target. Monoclonal anti-M13 antibody conjugated to horseradish peroxidase (Amersham Biosciences, Piscataway, N.J.) was diluted in TBST containing 3% BSA and 1.2 mM CaCl₂ (1:2,000) and added to each well (100 μl/well). After 1 h incubation at room temperature, wells were washed three times with TBST containing 3% BSA and 1.2 mM CaCl₂ and once with TBS containing 1.2 mM CaCl₂. Horseradish peroxidase substrate, TMB (Sigma), was added to each well (100 μl/well and after color development the reaction was stopped by addition of 100 μl 0.5 M sulphuric acid to each well. The intensity of the color was measured at 450 nm.
(§2) The phage clones shown to bind to the N-cadherin/Fc chimeric protein by ELISA were also evaluated for their ability to bind to E-cadherin/Fc and VE-cadherin/Fc chimeric proteins. The phage clones shown to bind to the E-cadherin/Fc chimeric protein by ELISA were also evaluated for their ability to bind to N-cadherin/Fc and VE-cadherin/Fc chimeric proteins. The same ELISA protocol described in the previous section was used to perform this evaluation with the exception that the wells were coated with either 100 ng N-cadherin/Fc, E-cadherin/Fc or VE-cadherin/Fc chimeric protein (R&D Systems, Minneapolis, Minn.).

[2] = target: T2, E-cadherin/Fc chimeric protein
Method: as §1, §2

[3] = target: T3, VE-cadherin/Fc chimeric protein
Method: as §1, §2

| Binder | binding result [1] | binding result [2] | binding result [3] |
| --- | --- | --- | --- |
| EWTYTFPTAHSI (whole phage in the assay) [phage clone Ec 12-a18] | binds | binds | no binding (tested: 10^9 pfu) |
| SWELYYPLRANL (whole phage in the assay) [phage clone Ec 12-a2] | binds | binds | no binding (tested: 10^9 pfu) |
| QWQLHWPASKQA (whole phage in the assay) [phage clone Ec 12-11] | binds | binds | no binding (tested: 10^9 pfu) |
| QWTYYLPLTPRW (whole phage in the assay) [phage clone Ec 12-a4] | binds | binds | no binding (tested: 10^9 pfu) |
| QWEWHYMAGYLA (whole phage in the assay) [phage clone Ec 12-15] | binds | binds | no binding (tested: 10^9 pfu) |
| EWDFFWPPTQTP (whole phage in the assay) [phage clone Ec 12-19] | binds | binds | no binding (tested: 10^9 pfu) |
| EWQYHWPTLQSR (whole phage in the assay) [phage clone Ec 12-22] | binds | binds | no binding (tested: 10^9 pfu) |
| SWTWHFPESPPP (whole phage in the assay) [phage clone Ec 12-01] | binds | binds | no binding (tested: 10^9 pfu) |
| EWTWVFPTTHTS (whole phage in the assay) [phage clone Ec 12-07] | binds | binds | no binding (tested: 10^9 pfu) |
| AWTWSLPTLPQS (whole phage in the assay) [phage clone Ec 12-a5] | binds | binds | no binding (tested: 10^9 pfu) |
| EWTFQWNSYPAD (whole phage in the assay) [phage clone Ec 12-10] | binds | binds | no binding (tested: 10^9 pfu) |
| QWEIRYPWPSMG (whole phage in the assay) [phage clone Ec 12-a1] | binds | binds | no binding (tested: 10^9 pfu) |
| SWTFYWPDAQLG (whole phage in the assay) [phage clone Ec 12-06] | binds | binds | no binding (tested: 10^9 pfu) |
| QWTITYPKPPAL (whole phage in the assay; also called QWTITYPKPPAL) [phage clone Ec 12-13] | binds | binds | no binding (tested: 10^9 pfu) |
| SWEWYIPYLNRT (whole phage in the assay) [phage clone Ec 12-a11] | binds | binds | no binding (tested: 10^9 pfu) |
| GWTVFYPDNLRP (whole phage in the assay) [phage clone Ec 12-18] | binds | binds | no binding (tested: 10^9 pfu) |
| EWFWSWPGYSNT (whole phage in the assay) [phage clone Ec 12-a13] | binds | binds | no binding (tested: 10^9 pfu) |
